Results reported in patent publication US20230272028.

What was measured:
[1] = biological target: T1, CTSL1_2 8-mer FRET substrate Mca-ALFFSSPPK-Dnp
T1 chain: ALFFSSPPK

[2] = biological target: T2, CTSL1_1 FRET substrate (ALFKSSFP)
T2 chain: ALFKSSFP

B1: Cathepsin K (CTSK) (protein)
chain: APDSVDYRKKGYVTPVKNQGQCGSCWAFSSVGALEGQLKKKTGKLLNLSPQNLVDCVSENDGCGGGYMTNAFQYVQKNRGIDSEDAYPYVGQEESCMYNPTGKAAKCRGYREIPEGNEKALKRAVARVGPVSVAIDASLTSFQFYSKGVYYDESCNSDNLNHAVLAVGYGIQKGNKHWIIKNSWGENWGNKGYILMARNKNNACGIANLASFPKM
FRET substrate cleavage, specific activity [1]: measurably cleaved by CTSK but at a 15× lower level than the CTSL1_1 substrate
FRET substrate cleavage, specific activity [2]: measurably cleaved by CTSK but at a 15× lower level than the CTSL1_1 substrate
